Reference: patent US20230233650A1, “NOVEL FATTY ACID MODIFIED UROCORTIN 2 DERIVATIVES AND THE USES THEREOF” (Novo Nordisk A/S, priority 2021, published 2023)
Numbered stars: 1 amine (or outer) side, 2 acyl side, 3 side chain; on linkers, the order of the positions; unused ones are H or OH. Side chains are listed from the residue outwards. Ends that are not written are not given here. * marks the point of attachment. C20 diacid = O=C(O)CCCCCCCCCCCCCCCCCCC(=O)*; γGlu = O=C(O)[C@H](CCC(=O)[*:2])N[*:1]; AEEA = NCCOCCOCC(=O)O

B1: Compound 3: N{epsilon}-[C20 diacid-3xgGlu-2xAdo]Lys-[Glu33,Glu37]-hUcn2 (peptide)
peptide: K([AEEA-AEEA-γGlu-γGlu-γGlu-C20 diacid])IVLSLDVPIGLLQILLEQARARAAREQATTNAEILAEV-NH2
modifications: N-terminus assumed
SMILES: CC[C@H](C)[C@H](NC(=O)[C@H](CCC(=O)O)NC(=O)[C@H](C)NC(=O)[C@H](CC(N)=O)NC(=O)[C@@H](NC(=O)[C@@H](NC(=O)[C@H](C)NC(=O)[C@H](CCC(N)=O)NC(=O)[C@H](CCC(=O)O)NC(=O)[C@H](CCCNC(=N)N)NC(=O)[C@H](C)NC(=O)[C@H](C)NC(=O)[C@H](CCCNC(=N)N)NC(=O)[C@H](C)NC(=O)[C@H](CCCNC(=N)N)NC(=O)[C@H](C)NC(=O)[C@H](CCC(N)=O)NC(=O)[C@H](CCC(=O)O)NC(=O)[C@H](CC(C)C)NC(=O)[C@H](CC(C)C)NC(=O)[C@@H](NC(=O)[C@H](CCC(N)=O)NC(=O)[C@H](CC(C)C)NC(=O)[C@H](CC(C)C)NC(=O)CNC(=O)[C@@H](NC(=O)[C@@H]1CCCN1C(=O)[C@@H](NC(=O)[C@H](CC(=O)O)NC(=O)[C@H](CC(C)C)NC(=O)[C@H](CO)NC(=O)[C@H](CC(C)C)NC(=O)[C@@H](NC(=O)[C@@H](NC(=O)[C@@H](N)CCCCNC(=O)COCCOCCNC(=O)COCCOCCNC(=O)CC[C@H](NC(=O)CC[C@H](NC(=O)CC[C@H](NC(=O)CCCCCCCCCCCCCCCCCCC(=O)O)C(=O)O)C(=O)O)C(=O)O)[C@@H](C)CC)C(C)C)C(C)C)[C@@H](C)CC)[C@@H](C)CC)[C@@H](C)O)[C@@H](C)O)C(=O)N[C@@H](CC(C)C)C(=O)N[C@@H](C)C(=O)N[C@@H](CCC(=O)O)C(=O)N[C@H](C(N)=O)C(C)C
B2: Compound 4: N{epsilon}-[C20 diacid-3xgGlu-2xAdo]Lys-[Glu33,Glu36]-hUcn2 (peptide)
peptide: K([AEEA-AEEA-γGlu-γGlu-γGlu-C20 diacid])IVLSLDVPIGLLQILLEQARARAAREQATTNAEILERV-NH2
modifications: N-terminus assumed
SMILES: CC[C@H](C)[C@H](NC(=O)[C@H](CCC(=O)O)NC(=O)[C@H](C)NC(=O)[C@H](CC(N)=O)NC(=O)[C@@H](NC(=O)[C@@H](NC(=O)[C@H](C)NC(=O)[C@H](CCC(N)=O)NC(=O)[C@H](CCC(=O)O)NC(=O)[C@H](CCCNC(=N)N)NC(=O)[C@H](C)NC(=O)[C@H](C)NC(=O)[C@H](CCCNC(=N)N)NC(=O)[C@H](C)NC(=O)[C@H](CCCNC(=N)N)NC(=O)[C@H](C)NC(=O)[C@H](CCC(N)=O)NC(=O)[C@H](CCC(=O)O)NC(=O)[C@H](CC(C)C)NC(=O)[C@H](CC(C)C)NC(=O)[C@@H](NC(=O)[C@H](CCC(N)=O)NC(=O)[C@H](CC(C)C)NC(=O)[C@H](CC(C)C)NC(=O)CNC(=O)[C@@H](NC(=O)[C@@H]1CCCN1C(=O)[C@@H](NC(=O)[C@H](CC(=O)O)NC(=O)[C@H](CC(C)C)NC(=O)[C@H](CO)NC(=O)[C@H](CC(C)C)NC(=O)[C@@H](NC(=O)[C@@H](NC(=O)[C@@H](N)CCCCNC(=O)COCCOCCNC(=O)COCCOCCNC(=O)CC[C@H](NC(=O)CC[C@H](NC(=O)CC[C@H](NC(=O)CCCCCCCCCCCCCCCCCCC(=O)O)C(=O)O)C(=O)O)C(=O)O)[C@@H](C)CC)C(C)C)C(C)C)[C@@H](C)CC)[C@@H](C)CC)[C@@H](C)O)[C@@H](C)O)C(=O)N[C@@H](CC(C)C)C(=O)N[C@@H](CCC(=O)O)C(=O)N[C@@H](CCCNC(=N)N)C(=O)N[C@H](C(N)=O)C(C)C

Tests used:
[1] = molecular target: T1, Pro-Link-tagged human CRF1 receptor (human, UniProt P34998 24-415); test: cell-based or functional assay
T1 sequence (looked up): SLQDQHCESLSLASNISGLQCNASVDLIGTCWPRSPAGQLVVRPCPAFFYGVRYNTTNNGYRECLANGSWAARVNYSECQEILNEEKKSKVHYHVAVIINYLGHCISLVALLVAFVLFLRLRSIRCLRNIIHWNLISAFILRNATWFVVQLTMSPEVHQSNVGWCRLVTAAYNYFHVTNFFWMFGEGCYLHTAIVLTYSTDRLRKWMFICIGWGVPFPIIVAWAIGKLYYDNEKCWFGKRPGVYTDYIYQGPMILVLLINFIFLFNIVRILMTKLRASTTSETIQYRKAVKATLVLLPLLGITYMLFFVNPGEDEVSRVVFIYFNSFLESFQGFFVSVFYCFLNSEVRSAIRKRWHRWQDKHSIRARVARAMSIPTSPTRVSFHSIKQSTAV

[2] = molecular target: T2, Human CRF2 receptor (Corticotropin-Releasing Factor receptor 2) (human) (UniProt Q13324); test: SPA, displacement of [125I]-Sauvagine from membranes of CHO-K1 cells expressing the CRF2 receptor
T2 sequence (looked up): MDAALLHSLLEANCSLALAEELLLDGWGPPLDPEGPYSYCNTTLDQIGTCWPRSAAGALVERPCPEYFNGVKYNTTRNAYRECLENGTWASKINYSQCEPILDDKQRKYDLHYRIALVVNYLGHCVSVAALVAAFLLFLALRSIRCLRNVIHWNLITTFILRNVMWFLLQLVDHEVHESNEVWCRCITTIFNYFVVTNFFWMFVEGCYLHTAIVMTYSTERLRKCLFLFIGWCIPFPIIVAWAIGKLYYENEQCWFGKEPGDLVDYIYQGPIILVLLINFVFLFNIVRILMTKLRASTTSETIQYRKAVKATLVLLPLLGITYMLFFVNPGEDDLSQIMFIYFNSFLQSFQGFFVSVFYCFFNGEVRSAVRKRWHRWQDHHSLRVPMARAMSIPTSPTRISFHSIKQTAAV

[3] = molecular target: T3, Human CRF1 receptor (Corticotropin-Releasing Factor receptor 1) (human), P34998; test: SPA, displacement of [125I]-Sauvagine from membranes of CHO-K1 cells expressing the CRF1 receptor; details: remark: other sources report otherwise
T3 chain: T1 sequence (looked up)

[4] = molecular target: T4, Pro-Link-tagged human CRF2 receptor (human, UniProt Q13324 20-411); test: cell-based or functional assay
T4 sequence (looked up): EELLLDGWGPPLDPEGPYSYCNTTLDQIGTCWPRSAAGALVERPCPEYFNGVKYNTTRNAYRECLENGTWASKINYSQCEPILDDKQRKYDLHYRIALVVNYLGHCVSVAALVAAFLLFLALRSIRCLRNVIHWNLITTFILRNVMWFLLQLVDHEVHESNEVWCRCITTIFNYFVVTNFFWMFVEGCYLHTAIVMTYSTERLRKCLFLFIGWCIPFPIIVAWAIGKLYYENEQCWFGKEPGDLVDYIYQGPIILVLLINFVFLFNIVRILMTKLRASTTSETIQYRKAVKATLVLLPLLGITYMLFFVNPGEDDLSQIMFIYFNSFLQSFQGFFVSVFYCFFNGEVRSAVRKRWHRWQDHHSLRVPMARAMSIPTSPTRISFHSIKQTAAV

[5] = molecular target: T5, Human CRF1 receptor (Corticotropin-Releasing Factor receptor 1) (human, UniProt P34998 24-415); test: SPA, displacement of [125I]-Sauvagine from membranes of CHO-K1 cells expressing the CRF1 receptor
T5 construct: whole, on cells; also called type 1 CRF receptor
T5 sequence (looked up): T1 sequence (looked up)
Description: Scintillation Proximity Assay: CHO-K1 cells expressing either the CRF₁ receptor or the CRF₂ receptor were obtained from DiscoveRx. Both cell lines were cultured at 37° C. in a humidified atmosphere with 5% CO₂. The culture media used was Ham’s F-12 Nutrient Mix with Glutamax (Gibco) containing 10% fetal bovine serum, 1% Pen/Strep, 800 µg/ml G418 and 300 µg/ml Hygromycin B. Membranes were prepared by the following protocol: cultured cells were washed twice with cold Dulbecco’s phosphate buffered saline and detached using TrypLE™ (ThermoFisher) and transferred to tubes and centrifuged for 5 minutes at 1000 g at +4° C. Pellets were resuspended in ice cold homogenization buffer (20 mM Hepes pH 7.1, 5 mM MgCl₂, 1 mg/ml Bacitracin with 2 complete EDTA-free protease inhibitor cocktail tablets/50 ml (Roche)) and then homogenized for 30 seconds using a Ultra-Turrax T25 tissue homogenizer (IKA) at medium speed. The homogenate was centrifuged at 35,000 g for 15 minutes at +4° C. using an ultracentrifuge, and the supernatant was discarded, and fresh homogenization buffer was added. Homogenization of the pellet was repeated a total of three times. The final pellet was resuspended in a few millilitres of homogenization buffer and protein concentration was determined using the Bradford method. The membrane preparation was transferred to cryotubes, and the aliquots were stored at -80° C. […]

Row | Binder | Human CRF1 receptor EC50 [nM] (beta-arrestin recruitment, PathHunter) [1] | IC50 [2] | IC50 [3] | Human CRF2 receptor EC50 [nM] (beta-arrestin recruitment, PathHunter) [4] | IC50 [5]
1 | IVLSLDVPIGLLQILLEQARARAAREQATTNARILARV-NH2 [Compound 2 - hUcn2 (human Urocortin 2 peptide)] | > 10000 nM | 0.58 nM | 447 nM | – | –
2 | DNPSLSIDLTFHLLRTLLELARTQSQRERAEQNRIIFDSV-NH2 (also called human Ucn1) [Compound 1 - hUcn1 (human Urocortin 1 peptide)] | 22 nM | – | – | 31 nM | 0.07 nM
3 | B1 | > 10000 nM | – | – | 55 nM | –
4 | B2 | > 10000 nM | – | – | 42 nM | –
